B1: Drp1-specific nanobody D7 (VHH)
VHH: QVQLVESGGGLVQPGGSLRLSCVASGFDFSTYSMTWHRQVLGKERELVASITPGGSRTNVADSVKGRFTISRDNAKNMLYLQMDRLKPEDTGMYYCAQGGYYAEPDYWGKGTRVTVSS
modifications: biotinylated for BLI (site not stated); covalently immobilised on NHS-activated sepharose via primary amino groups of accessible lysines for the nanotrap
B2: Drp1-specific nanobody D63 (VHH)
VHH: QVQLVESGGDLVQPGGSLKLSCAVSGVSDSLSSFYLMAWHRQAPGKQREMIADIVSGKATYADSVKGRFTISRDNAENTAYLQMNSLKPEDTAVYYCNVLIQNRSTFQSYWGQGTQVTVSS
modifications: biotinylated for BLI (site not stated); covalently immobilised on NHS-activated sepharose via primary amino groups of accessible lysines for the nanotrap

Target: recombinant human dynamin-related protein 1 (Drp1), isoform 1 (human, UniProt O00429 1-736)
Assay: BLI

Chain of recombinant human dynamin-related protein 1 (Drp1), isoform 1 (O00429 whole entry, canonical isoform): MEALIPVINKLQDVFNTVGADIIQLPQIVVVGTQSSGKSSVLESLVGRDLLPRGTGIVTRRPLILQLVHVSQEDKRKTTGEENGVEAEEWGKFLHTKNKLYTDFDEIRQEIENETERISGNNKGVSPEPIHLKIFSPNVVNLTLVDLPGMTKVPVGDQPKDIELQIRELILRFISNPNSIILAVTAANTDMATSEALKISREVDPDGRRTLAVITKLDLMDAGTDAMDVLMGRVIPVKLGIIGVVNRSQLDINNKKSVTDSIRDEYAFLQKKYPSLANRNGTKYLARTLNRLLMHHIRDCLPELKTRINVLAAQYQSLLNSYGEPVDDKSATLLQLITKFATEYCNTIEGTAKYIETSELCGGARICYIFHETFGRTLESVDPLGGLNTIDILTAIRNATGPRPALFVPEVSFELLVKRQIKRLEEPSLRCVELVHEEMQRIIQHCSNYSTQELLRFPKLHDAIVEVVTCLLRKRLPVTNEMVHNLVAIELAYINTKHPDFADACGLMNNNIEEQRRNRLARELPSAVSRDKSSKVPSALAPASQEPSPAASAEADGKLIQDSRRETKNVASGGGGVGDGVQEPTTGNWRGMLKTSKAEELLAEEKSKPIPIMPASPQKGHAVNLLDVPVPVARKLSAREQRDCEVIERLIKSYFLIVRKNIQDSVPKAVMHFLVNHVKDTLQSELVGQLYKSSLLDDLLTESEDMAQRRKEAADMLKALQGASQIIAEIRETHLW

| Binder | koff |
| --- | --- |
| B1 | 0.000117 s⁻¹ |
| B2 | 0.000227 s⁻¹ |
